This is an account of results in the RNAGym collection of RNA variant scans (doi:10.1073/pnas.2313332121).

To fix the notation:
B1: TPR t1 (parent)
chain: GACCAAUCUGCCCUCAGAGCUCGAGAACAUCUUCGGAUGCAGAGGAGGCAGGCUUCGGUGGCGCGAUAGCGCCAACGUCCUCAACCUCCAAUGCAUCCCACCACAUGAUGAUGCCUGAAGAGCCUUGGUUUUUUG

The variants in the data set derive from B1. Description: polymerase ribozyme fitness, log enrichment relative to wild type (log ratio); higher = more active; in vitro selection for triplet polymerase activity. The method, boiled down: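 To select mutant libraries of each subunit of a heterodimeric triplet polymerase ribozyme, built by PCR and transcribed, each was annealed with a biotinylated primer, partner subunit and triplets, then incubated frozen at −7 °C. Extended constructs were gel-excised, captured on streptavidin beads and amplified by RT-PCR, in one round carried out in triplicate. Illumina sequencing of input and output libraries kept genotypes with ≥10 input reads and ≥1 read per output. Fitness is the base-2 logarithm of genotype enrichment relative to wild-type enrichment, from inverse-variance-weighted replicate averages.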
For GACCAAUCUGCCCUCAGAGUUCGAGAACAUCUUCGGAUGCAGAGGUGGCAGGCUUCGGUGGCGCGAUAGCGCCAACGUCCUCAACCUCCAAUGCAUCCCACCACAUGAUGAUGCCUGAAGAGCCUUGGUUUUUUG [C20U A46U], the “polymerase ribozyme fitness (log ratio)” value was -2.88. The same measure for GACCAAUCUGCCCUCAGAGUUCGAGAACAUCUUCGGAUGCAGCGGAAGCAGGCUUCGGUGGCGCGAUAGCGCCAACGUCCUGAACCUCCAAUGCUUCCCACCACCUGAUGAAGCCUGAAGAGCCUUGGUUUUUUG [C20U A43C G47A C82G A95U A105C U112A]: -4.61.

GACCAAUCUGCCCUCAGAGUUCGAGAACAUCUUCGGAUGCAGAGGAGGCAGGCUUCGGUGGCGCGAUAGCGCCAACGUCCUCAACCUCCUAUGCAUCCCACCACAUGAUGAUGCCUGAAGAGUCUUGGUUUUUUG [C20U A90U C123U]: the “polymerase ribozyme fitness (log ratio)” value was -1.5. Regarding GACCAAUCUGCCCUCAGAGUUCGAGAACAUCUUCGGAUGCAGAGGAGGGAGCCUUCGGUGGCGCGAUAGCGACAACGUCCUCAACCUCCAAUUCAUCCCACCACAUGAUGAUGCCUUAGGAGCCUUGUUUUUUUG [C20U C49G G52C C72A G93U G117U A119G G128U], the “polymerase ribozyme fitness (log ratio)” value was -4.52.

For GACCAAUCUGCCCUCAGAGUUCGAGAACAUCUUCGGAUGCAGAGGAGGCAGGCUUGGGUGGCCCGAUAGCGCCAACGUCCUCAACCUCCAAUGCAUCCCACCACAUGAUGAUGCCUGAAGAGCCUUGGUUUUUUG [C20U C56G G63C], the “polymerase ribozyme fitness (log ratio)” value is -5.5. As for GACCAAUCUGCCCUCAGAGUUCGAGAACAUCUUAGGAUGCAGAGGAGGCAGGCUUCGGUGGCGCGAUAGCGCCAACGUCCUCAACCUCCAAUGCAUCCCACCACAUGAUGAUGCCUGAAGAGCCUUGGUUUUUUG [C20U C34A], the figure is -4.05; as for GACCAAUCUGCCCUCAGAGUUCGAGAACAUCUUGGGAUGCAGAGGAGGCAGGCUUCGGUGGCGCGAUAGCGCCAACGUCCUCAACCUCCAAUGCAUCCCACCACAUGAUGAUGCCUGAAGAGCCUUGGUUUUUUG [C20U C34G], -6.47; as for GACCAAUCUGCCCUCAGAGUUCGAGCACAUCUUCGGAUGCAGAGGAGGCAGACUUCGGUGGCGCGAUAACGGCAACGUCCUCAACCUCCAAUGCAUCCCACCACAUGAUGAUGCCUGGACAGCCUGGGUUUUUUG [C20U A26C G52A G69A C72G A118G G120C U126G], -6.5. The same measure for GACCAAUCUGCCCUCAGAGUUCGAGAAUAUCUUCGGAUGCAGAGGAGGCAGGCUUCGGUGGCGCGAUAGCGACAACGUCCUCAACCUCCAAUGUAUCCCACCACAUGAUGAUGCCUGAAGAGCCUUGGUUUUUUG [C20U C28U C72A C94U]: -1.9. The same measure for GACCAAUCUGCCCUCAGAGUUCGAGAACAUCUUCGGAUGUAGAGGAGGCAGGCUUCGGUGGCGCGAUAGUGCCAACGUCCUCAACCUCCAAUGCAUCCCACCACAUGAUGAUGCCUGAACAGCCUUGGUUUUUUG [C20U C40U C70U G120C]: -1.36. As to GACCAAUCUGCCCUCAGAGUUCGAGAACAUCUUCGGAUGCAGAGGAGGCAGGUUUCGGUGGCGCGAUAGCGCCAACGUCCUCAACCUCCAAUGCAUCCCACCACAUGAUGAUCCCUGAAGAGCCUUGGUUUUUUG [C20U C53U G113C], the “polymerase ribozyme fitness (log ratio)” value is -1.84.

For GACCAAUCUGCCCUCAGAGUUCGAGAACAUCUUCGGAUGCAGAGGAGGCAGGCUUGGGUGGCGCGAUAGCGCCAACGUCCUCAACCUCCAAUGCAUCCCACCACAUGAUGAUGCCUGAAGAGCCUUGGUUUUUUG [C20U C56G], the “polymerase ribozyme fitness (log ratio)” value was -1.53. As for GACCAAUCUGCCCUCAGAGUUCGAGAACAUCUUCGGAUGCAGAGGAGGCAGGCUUCGGUGGCGCGAUAGCGCCAACGUCCUCAACCUCCUAUGCAUCCCACCACAUGAUUAUGCCUGAAGAGCCUUGGUUUUUUG [C20U A90U G110U], the figure is -4.33; as for GACCAAUCUGCCCUCAGAGUUCGAGAACAUCUUCGGAUGAAGAGGAGGCAGGCUUCGGUGGCGCGAUACCGCCAACGUCCUCAACCUCCAAUGGAUCCCACCACAUGAUGAUGCCUGAAUAGCCUUGGUUUUUUG [C20U C40A G69C C94G G120U], -5.2. For GACCAAUCUGCCCUCAGAGUUCGAGAACGUCUUCGGAUGCAGAGGAGGCAGGCUUCGGUGUCGCGAUAGCGCCAACGUCCUCAACCUCCAAUGCAUCCCACCACAUGAUGAUGCACUAAGAGCCUUGGUUUUUUC [C20U A29G G61U C115A U116C G117U G135C], the “polymerase ribozyme fitness (log ratio)” value was -1.97.

For the variant GACCAAUCUGCCCUCAGAGUUCGAGAACAUCUUCGGAUGCAGAGGUGGCAGGCUUCGGUGGCGCGAUAGCGCCAACGUCCUCAACCUCUAAUGCAUCCCACCACAUGAUGAUGCCUGAAGAGCCUUGGUUUUUUG [C20U A46U C89U], the “polymerase ribozyme fitness (log ratio)” value is -3.4. GACCAAUCUGCCCUCAGAGUUCGAGAACAUCUUCGGUUGCAGAGGAGGCAGGCUUUGGUGGCGCGAUAGCGCCAACGUCCUCAACCUCCAAUGCAUCCCACCACAUGAUGAUGCCUGAAGAGCCUUGGUUUUUUG [C20U A37U C56U]: the “polymerase ribozyme fitness (log ratio)” value was -1.39. As for GACCAAUCUGCCCUCAGAGUUCGAGAACAUCUUCGGAUGCAGGGGAGGCAGGCUUCGGUGGCGCGAUACCGCCAACGUCCUCAACCUUCAAUGCAUCCCACCACAUGAUGAUGCCUGAAGAGCCUUGGUAUUUUG [C20U A43G G69C C88U U130A], the figure is -5.74. Take GACCAAUCUGCCCUCAGAGUUCGAGAACAUCUUCGGAUGCAGAGGGGGCAGGCUUCGGUGGCGCGAUAGCGCCAACGUCCUCAACCUCCAAUGUAUCCCACCACAUAAGGAUGCCUGAAAAGCCUUGGUUUUUUG [C20U A46G C94U G107A U109G G120A]: the “polymerase ribozyme fitness (log ratio)” value was -5.88.

Consider GACCAAUCUGCCCUCAGAGUUCGAGAACAUCUUCGGAUGCAGAGGAGGUAGGCUUCGGUGGCGCGAUAGCGCCAACGUCCUCAACCUCCUAUGCAUCCCACCACAUGAUGAUGCCUUAAGAGCCUUGGUUUUUUG [C20U C49U A90U G117U], for which the “polymerase ribozyme fitness (log ratio)” value was -4.34.

On to GACCAAUCUGCCCUCAGAGUUCGAGAACAUCUUCGGAUGCAGAGGAGGCAGGCUUCGGUGGCGCGAUAGCGCCAACGUCCUCAACCUCCUAUACAUCCCACCACAUGAUGAUGCCUGAAGAGCCUUGGUUUUUUG [C20U A90U G93A], for which the “polymerase ribozyme fitness (log ratio)” value was -2.41.
